In US6350609B1, “Electrospraying for mass fabrication of chips and libraries” (New York University, priority 1997, dated 2002):
Several values for one entry are separate records, joined by “and”; a condition that tells them apart may be missing. Equal values may be shown once.

B1: AP: Alkaline phosphatase (AP) from bovine intestinal mucosa, Sigma (protein, UniProt P19111 20-506, looked up)
Intestinal-type alkaline …: LVPVEEEDPAFWNRQAAQALDVAKKLQPIQTAAKNVILFLGDGMGVPTVTATRILKGQMNGKLGPETPLAMDQFPYVALSKTYNVDRQVPDSAGTATAYLCGVKGNYRTIGVSAAARYNQCKTTRGNEVTSVMNRAKKAGKSVGVVTTTRVQHASPAGAYAHTVNRNWYSDADLPADAQMNGCQDIAAQLVNNMDIDVILGGGRKYMFPVGTPDPEYPDDASVNGVRKRKQNLVQAWQAKHQGAQYVWNRTALLQAADDSSVTHLMGLFEPADMKYNVQQDHTKDPTLQEMTEVALRVVSRNPRGFYLFVEGGRIDHGHHDDKAYMALTEAGMFDNAIAKANELTSELDTLILVTADHSHVFSFGGYTLRGTSIFGLAPSKALDSKSYTSILYGNGPGYALGGGSRPDVNDSTSEDPSYQQQAAVPQASETHGGEDVAVFARGPQAHLVHGVEEETFVAHIMAFAGCVEPYTDCNLPAPTTATSIPD

How the values were obtained:
Cytochrome C (equine) = Cytochrome C (equine) (Equus caballus, UniProt P00004); assay: Mechano-chemical effect of a specific ligand on cross-linked protein film (isometric tension); assay type: biochemical; details: electrospray deposited, reduction with dithionite
alkaline phosphatase = target: T1, alkaline phosphatase (Bos taurus, UniProt P19111); assay: Enzyme activity of electrospray-deposited alkaline phosphatase on nitrocellulose filter (BCIP/NBT substrate); assay type: biochemical; details: deposited through polypropylene mask onto wetted nitrocellulose filter; BCIP/NBT staining
T1 construct: purchased Sigma Chemical Company, St. Louis, Mo
Excerpt: The electrospray conditions used in this example were similar to those used in Example 1.
Likewise, the membrane filters on which alkaline phosphatase was deposited was soaked in a standard alkaline phosphatase substrate (5-bromo-4-chloro-3-indolyl phosphate/nitro blue tetrazolium substrate system kit, Sigma, St. Louis, Mo.), resulting in the formation of an insoluble blue colored product of the alkaline phosphatase reaction, and the pattern was visualized as shown in FIG. 12B.

[1] = Engström, 1961; cited from earlier work
[2] = target: T2, Alkaline phosphatase (AP) from bovine intestinal mucosa (Bos taurus, UniProt P19111); assay: Recovery of specific AP activity (pNPP) after electrospray deposition or drying; assay type: biochemical; details: for Activity % (ratio of specific activity of the electrospray-deposited AP to that in the initial solution): +(3-4) kV, 1-50 nA, 0.1 μL/min, tip distance 10 mm, humidity 65 ± 5%
T2 construct: purchased Sigma Chemical Co., St. Louis, Mo; host or cells: bovine intestinal mucosa
Excerpt: Materials. Alkaline phosphatase (AP) from bovine intestinal mucosa, p-nitrophenyl phosphate (pNPP substrate table set, Sigma Fast), trehalose and sucrose were obtained from Sigma Chemical Co., St. Louis, Mo. All other salts and buffer reagents were of analytical grade.
Design of Capillaries for Electrospray. Three different designs of the electrospray capillaries have been tested throughout this study. A first design, shown in FIG. 20A, is similar to the “nanoelectrospray ion source” (Wilm et al., 1994 and 1996) with a silver layer plated on the external surface of the capillary instead of gold. Glass capillaries with sealed ends were first treated for 20 seconds with an electrodeless plasma discharge at reduced pressure (0.01 Torr, discharge power of 10-20 W, in a Pyrex class chamber, 0.25 L). After such plasma cleaning, the glass capillaries were activated in an acidified solution of SnCl2 and 50 g of HCl per 1 L), washed with water and covered with a silver “mirror” (Yampolskii et al., 1981). This design is referred to as a capillary with an external electrode.
A second design, shown in FIG. 20B, is a modification of an electrospray capillary described by the laboratory of the present inventors (Morozov et al., 1993). In this capillary metal electrode (tungsten or stainless steel wire) is not exposed to a gas phase, thus reducing the risk of cornea discharge at high voltages. This second design is referred to as a capillary with an inner electrode.
In a third design, of the capillary (referred to as a bridge capillary), contact of protein solutions with a metal electrode was completely avoided by introducing a liquid bridge between them. […] Since the cross-section of the external capillary 5 is more than ten times larger than that of the inner capillary 7, the conductivity of the external capillary exceeds […] the conductivity of the inner capillary, making most of the current go through the large external capillary 5, whereas the internal plastic capillary 7 is used to supply protein solution.
A microprocessor controlled syringe pump (Cole-Parmer, Niles, Ill.) in combination with a 10 μL Hamilton microsyringe was used to feed the electrospray capillaries. The flow rate was 6-9 μL/h, and the outer diameter of the capillary tips varied in different experiments between 50 and 100 μm.
Chamber with Controlled Humidity. To control humidity during electrospray experiments with enzymes and to protect protein samples from contamination with dust particles present in the ambient air, the electrospray deposition was performed in a small (0.5 L) nearly cubic acrylic box, schematically presented in FIG. 21. A glass window was glued to one side of the box to enable sharp observation of the electrospray torch and substrate under a stereo microscope. The humidity and temperature inside the chamber were measured with solid state digital sensors (Fisher) with 2-4% precision for humidity and 0.2° C. for temperature. To increase the rate of sensor response and to keep the same humidity in all parts of the chamber, the air was stirred with a small fan. Dry air from a tank or air bubbled through water was introduced into the chamber until the required humidity was reached. The fan was then stopped, and electrospray initiated. Occasionally, portions of dry or wet gas were added during the spray experiment if the humidity deviated by more than 3-5% from the required level.
Mass Measurements of the Electrospray-Deposited Proteins. A home-built Quartz Crystal Microbalance (QCM; Sauerbrey, 1959) was used to measure the mass of the electrospray-deposited protein. The microbalance was made of commercial AT-cut quartz crystals (12-17 MHz, with silver electrodes of 5 mm in diameter) after removal of their protective shells. QCM calibration was performed using 0.1% solution of sugar in water. […]

Bovine intestinal AP = Bovine intestinal AP (Bos taurus, UniProt P19111); details: McComb et al., 1979; cited from earlier work

Cytochrome C (equine), sequence (P00004 whole entry): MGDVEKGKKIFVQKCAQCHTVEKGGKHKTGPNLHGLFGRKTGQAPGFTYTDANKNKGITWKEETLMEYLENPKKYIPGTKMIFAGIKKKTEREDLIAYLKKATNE

Molecule | Effect in Electrospray Deposit Sample % (relative change in isometric tension) (Cytochrome C (equine)) | enzymatic activity after electrospray deposition (alkaline phosphatase) | pI [1] | Activity % (ratio of specific activity of the electrospray-deposited AP to that in the initial solution) ([2]; Bridge Type capillary) [%] | AP activity after electrospray deposition at high voltage and current ([2]; V>7-8 kV, I>500-1500 nA) | AP activity preserved upon drying ([2]; addition of 50% (w/w) of disaccharide (sucrose or trehalose)) [%] | difference in specific AP activity of deposits made at low current before and after electrospray at 1500 nA from the same capillary ([2]; capillaries with internal and external electrodes) | Activity % (ratio of specific activity of the electrospray-deposited AP to that in the initial solution) ([2]; capillary with External Electrode) [%] | Activity % (ratio of specific activity of the electrospray-deposited AP to that in the initial solution) ([2]; capillary with Internal Electrode) [%] | AP inactivation upon electrospray deposition ([2]; capillary with internal electrode, humidity A=65%, currents not exceeding 50 nA) | decrease of AP activity upon electrospray deposition under low humidity ([2]; rapid drying of droplets in gas phase, low humidity, +4 kV, internal electrode, 10-50 nA, 6 μL/h) [%] | AP inactivation upon electrospray deposition ([2]; the two other capillary designs (external electrode, bridge), similar currents and humidity) [%] | pH of exposure causing irreversible inactivation (Bovine intestinal AP)
O=S(O)S(=O)O [dithionite] | −41% and −49% | – | – | – | – | – | – | – | – | – | – | – | –
B1 | – | retained | 4.4 | 31 ± 12 | loses nearly all of its activity | 100 | no notable difference | 32 ± 9 | 55 ± 10 | approximately 45% | 30 | 70 | 4.5-5.0
